Like-named read-outs stand apart in the source and are kept apart here.
Key:
Assay in all cases: FRET or BRET
P14 TCR vβ8 chain [1] = biological target: P14 TCR vβ8 chain
OT-I TCR vβ5 chain [2] = biological target: OT-I TCR vβ5 chain
P14 TCR vβ8 chain [3] = biological target: P14 TCR vβ8 chain; remark: listed apart in the source
P14 TCR vβ8 chain [4] = biological target: P14 TCR vβ8 chain; remark: listed apart in the source
P14 TCR vβ8 chain [5] = biological target: P14 TCR vβ8 chain; remark: listed apart in the source
OT-I TCR vβ5 chain [6] = biological target: OT-I TCR vβ5 chain; remark: listed apart in the source
P14 TCR vβ8 chain [7] = biological target: P14 TCR vβ8 chain; remark: listed apart in the source
P14 TCR vβ8 chain [8] = biological target: P14 TCR vβ8 chain; remark: listed apart in the source
OT-I TCR vβ5 chain [9] = biological target: OT-I TCR vβ5 chain; remark: listed apart in the source
P14 TCR vβ8 chain [10] = biological target: P14 TCR vβ8 chain; remark: listed apart in the source
OT-I TCR vβ5 chain [11] = biological target: OT-I TCR vβ5 chain; remark: listed apart in the source

| FRET efficiency (P14 TCR vβ8 chain [1]) [%] | FRET efficiency (OT-I TCR vβ5 chain [2]) [%] | FRET efficiency (P14 TCR vβ8 chain [3]) [%] | FRET efficiency (P14 TCR vβ8 chain [4]) [%] | FRET efficiency (P14 TCR vβ8 chain [5]) [%] | FRET efficiency (OT-I TCR vβ5 chain [6]) [%] | FRET efficiency (P14 TCR vβ8 chain [7]) [%] | FRET efficiency (P14 TCR vβ8 chain [8]) [%] | FRET efficiency (OT-I TCR vβ5 chain [9]) [%] | FRET efficiency (P14 TCR vβ8 chain [10]) [%] | FRET efficiency (OT-I TCR vβ5 chain [11]) [%] | Substance |
| --- | --- | --- | --- | --- | --- | --- | --- | --- | --- | --- | --- |
| 35 | 12 | 19 | 27 | 10 | 28 | 26 | 27 | 12 | 23.3 |  | P14 TCR vα2 chain with two N-terminal myc tags |
|  | 25 | 21 |  | 16 |  |  |  | 32.5 | 22.6 | 33.7 | OT-I TCR vα2 chain with N-terminal HA tag |
